Measurements published in patent US20260209750, “SYSTEM AND METHOD FOR […] RNA APTAMER” (CRISmers Biotechnologies (Shenzhen) Co., Ltd., published 2026).

Assays:
[1] = biological target: NSP7-8 complex (SARS-CoV-2, UniProt P0DTD1;P0DTD1 P0DTD1:3860-3942,P0DTD1:3943-4140); test: ELONA; settings: label: biotin
[2] = biological target: T1, SARS-CoV-2 spike RBD (wild type), recombinant (SARS-CoV-2, UniProt P0DTC2 P0DTC2:319-541); test: ELONA
[3] = biological target: PD-1 extracellular domain, recombinant (UniProt Q15116 Q15116:25-170); test: ELONA
PD-1 extracellular domain, recombinant, sequence (Q15116 25-170, one chain of several): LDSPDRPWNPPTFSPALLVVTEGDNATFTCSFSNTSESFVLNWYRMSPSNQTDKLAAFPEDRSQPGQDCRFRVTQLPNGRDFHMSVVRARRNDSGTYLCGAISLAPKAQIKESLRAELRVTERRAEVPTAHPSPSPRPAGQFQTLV

[4] = biological target: T1, SARS-CoV-2 spike RBD (wild type), …; test: EMSA

| Binder | binding result [1] | Kd [2] [nM] | binding result [3] | binding result [4] |
| --- | --- | --- | --- | --- |
| ACUUGGCCAAUUACCGUAGUUUUUGUAGUCUGCAGGGCCAAGUG (ssRNA) [#5-2-15 full] | no binding | 22.6 | no binding | – |
| ACUUGGCCAAUUACCGUAGUUUUUGUAGUCUGCAGGGCCAAGUG (ssRNA, 2'-F on pyrimidines, 2'-OMe on purines) [#5-2-15-2'-F-O] | – | – | – | binds |
| ACUUGGCCACGUCGACUGAAAUCCUCUUCCUGCAGGGCCAAGUG (ssRNA) [#2-1-18 full] | no binding | – | no binding | – |
| ACUUGGCCACGUCGACUGAAAUCCUCUUCCUGCAGGGCCAAGUG (ssRNA, 2'-F on pyrimidines, 2'-OMe on purines) [#2-1-18-2'-F-O] | – | – | – | binds |
